Measured values reported in patent US20220332804A1 (CSL INNOVATION, published 2022).

Legend:
Assay in all cases: SPR, mAb captured, C2 mutant analyte;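 further: Anti-C2 mAbs captured on goat anti-human IgG Biacore CM5 chips, alanine or serine C2 surface mutants flowed over at 37 °C, double-referenced sensorgrams fitted to a 1:1 binding model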
human C2 N380A = biological target: T1, human C2 N380A (human, UniProt P06681 21-752)
T1 sequence: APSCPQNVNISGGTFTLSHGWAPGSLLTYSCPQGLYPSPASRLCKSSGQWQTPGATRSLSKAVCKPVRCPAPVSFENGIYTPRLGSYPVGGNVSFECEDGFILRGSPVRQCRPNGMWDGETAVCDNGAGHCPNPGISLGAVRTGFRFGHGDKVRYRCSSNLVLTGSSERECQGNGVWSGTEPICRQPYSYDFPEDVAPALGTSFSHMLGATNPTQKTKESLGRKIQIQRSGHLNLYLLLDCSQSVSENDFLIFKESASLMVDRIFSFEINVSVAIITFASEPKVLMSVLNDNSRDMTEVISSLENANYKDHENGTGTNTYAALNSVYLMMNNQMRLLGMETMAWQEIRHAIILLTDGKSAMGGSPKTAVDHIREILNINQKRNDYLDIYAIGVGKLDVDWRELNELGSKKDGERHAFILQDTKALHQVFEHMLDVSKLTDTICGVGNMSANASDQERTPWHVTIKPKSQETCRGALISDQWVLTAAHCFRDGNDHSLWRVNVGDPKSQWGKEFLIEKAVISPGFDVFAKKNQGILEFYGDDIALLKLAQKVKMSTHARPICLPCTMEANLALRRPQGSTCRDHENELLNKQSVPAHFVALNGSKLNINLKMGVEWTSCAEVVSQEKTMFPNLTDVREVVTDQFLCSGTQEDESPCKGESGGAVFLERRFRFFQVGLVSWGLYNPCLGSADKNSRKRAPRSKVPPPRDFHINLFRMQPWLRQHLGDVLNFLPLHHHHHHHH

human C2 D441A = biological target: T2, human C2 D441A (human, UniProt P06681 21-752)
T2 sequence: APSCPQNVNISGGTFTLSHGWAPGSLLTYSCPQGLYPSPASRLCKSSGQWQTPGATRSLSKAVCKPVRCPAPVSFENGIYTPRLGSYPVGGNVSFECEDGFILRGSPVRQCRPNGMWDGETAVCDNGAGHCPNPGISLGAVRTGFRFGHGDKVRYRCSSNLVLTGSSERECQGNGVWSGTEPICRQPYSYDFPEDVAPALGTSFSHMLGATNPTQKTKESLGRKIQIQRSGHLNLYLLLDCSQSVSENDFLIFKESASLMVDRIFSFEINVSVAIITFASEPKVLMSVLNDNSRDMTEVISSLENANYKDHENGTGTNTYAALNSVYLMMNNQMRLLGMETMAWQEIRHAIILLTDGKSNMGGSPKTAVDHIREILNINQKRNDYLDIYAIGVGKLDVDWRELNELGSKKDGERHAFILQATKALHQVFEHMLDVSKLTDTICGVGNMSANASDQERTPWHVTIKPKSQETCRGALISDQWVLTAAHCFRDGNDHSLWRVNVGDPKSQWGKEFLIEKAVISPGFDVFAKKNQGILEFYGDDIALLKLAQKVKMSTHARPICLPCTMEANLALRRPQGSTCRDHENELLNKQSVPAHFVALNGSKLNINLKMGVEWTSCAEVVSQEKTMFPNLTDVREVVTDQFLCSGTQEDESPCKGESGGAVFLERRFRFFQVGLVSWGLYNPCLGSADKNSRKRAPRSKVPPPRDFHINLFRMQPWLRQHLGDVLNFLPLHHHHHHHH

human C2 K430A = biological target: T3, human C2 K430A (human, UniProt P06681 21-752)
T3 sequence: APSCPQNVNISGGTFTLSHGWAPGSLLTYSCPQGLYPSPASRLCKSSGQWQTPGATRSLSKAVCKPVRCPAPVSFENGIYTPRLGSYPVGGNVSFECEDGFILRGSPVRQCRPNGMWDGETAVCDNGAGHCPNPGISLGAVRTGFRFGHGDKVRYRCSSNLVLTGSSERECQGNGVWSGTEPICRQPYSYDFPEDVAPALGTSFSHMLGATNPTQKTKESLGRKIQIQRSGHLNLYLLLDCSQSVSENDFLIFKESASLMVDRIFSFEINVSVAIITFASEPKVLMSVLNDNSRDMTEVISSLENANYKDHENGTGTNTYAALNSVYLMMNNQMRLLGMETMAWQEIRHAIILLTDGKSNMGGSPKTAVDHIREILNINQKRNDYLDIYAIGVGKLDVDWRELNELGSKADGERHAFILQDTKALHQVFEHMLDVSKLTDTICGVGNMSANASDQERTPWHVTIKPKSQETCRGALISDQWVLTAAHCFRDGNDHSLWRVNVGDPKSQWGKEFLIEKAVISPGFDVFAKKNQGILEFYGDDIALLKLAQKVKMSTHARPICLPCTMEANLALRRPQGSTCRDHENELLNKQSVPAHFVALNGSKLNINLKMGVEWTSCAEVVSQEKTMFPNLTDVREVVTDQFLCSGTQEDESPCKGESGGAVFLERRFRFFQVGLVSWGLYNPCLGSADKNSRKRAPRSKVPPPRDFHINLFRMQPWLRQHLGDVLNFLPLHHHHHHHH

human C2 N268A = biological target: T4, human C2 N268A (human, UniProt P06681 21-752)
T4 sequence: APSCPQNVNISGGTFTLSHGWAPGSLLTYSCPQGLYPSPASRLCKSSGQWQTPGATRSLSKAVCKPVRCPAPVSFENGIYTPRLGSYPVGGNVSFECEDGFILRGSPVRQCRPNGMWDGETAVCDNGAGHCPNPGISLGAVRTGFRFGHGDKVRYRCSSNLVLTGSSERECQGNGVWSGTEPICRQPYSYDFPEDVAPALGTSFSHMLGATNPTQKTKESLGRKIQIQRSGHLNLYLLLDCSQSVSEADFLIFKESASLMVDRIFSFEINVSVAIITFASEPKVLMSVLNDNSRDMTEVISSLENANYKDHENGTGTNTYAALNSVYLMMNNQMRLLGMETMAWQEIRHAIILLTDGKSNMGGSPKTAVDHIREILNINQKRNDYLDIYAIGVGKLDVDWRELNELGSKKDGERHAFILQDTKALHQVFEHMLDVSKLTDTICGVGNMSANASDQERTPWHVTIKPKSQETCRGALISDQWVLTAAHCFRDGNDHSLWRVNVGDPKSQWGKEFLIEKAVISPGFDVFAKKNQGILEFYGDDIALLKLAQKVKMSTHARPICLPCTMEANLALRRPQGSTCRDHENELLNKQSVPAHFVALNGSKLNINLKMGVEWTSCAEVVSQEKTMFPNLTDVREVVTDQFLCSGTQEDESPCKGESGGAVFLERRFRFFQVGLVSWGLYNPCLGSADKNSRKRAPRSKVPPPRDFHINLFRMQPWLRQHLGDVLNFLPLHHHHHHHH

- Kd (human C2 N380A): 58.8 nM
- Kd (human C2 D441A): 51.5 nM
- Kd (human C2 K430A): 308 nM
- Kd (human C2 N268A): 60.8 nM
B1: RF16-214 (antibody, V domains shown)
VH: EVQLLESGGGLVQPGGSLRLSCAASGFTFSWYQMMWVRQAPGKGLEWVSRIYPSGGGTAYADSVKGRFTISRDNSKNTLYLQMNSLRAEDTAVYYCARDAGYGDNWGQGTLVTVSS
VL: QSALTQPPSVSVSPGQTASITCSGDKLGEKYASWYQQKAGQSPVMVIYQDRKRPSGIPERFSGSNSGNTATLTISGTQAMDEADYYCQAWDTRAVVFGGGTKLTVLG
